Data set [1] in a line: Effect of organic solvents on laccase activity. Type of data set: biochemical. The note with it: ABTS. On the procedure:
To test the effects of various organic solvents on laccase activity, the enzymatic assay described above was carried out in the presence of one of the organic solvents shown in Table 1 below at various concentrations (1%, 10% and 25%). A T. versicolor (Fluka) laccase was used as a reference enzyme in this study. The enzyme concentration used in this study was 0.2 mg/ml. […] Further, more than 80% laccase activity remained in the presence of 10% acetonitrile or dimethyl sulfoxide. […]

The nature of data set [2]: pH stability: residual activity after pre-incubation at various pH. Type of data set: physicochemical. On the procedure:
(§1) The effect of pH on the laccase activity was investigated at a pH range of 2.5-6.0. Four buffer systems were used in this study: 50 mM glycine-HCl buffer (pH 2.5), 50 mM citric acid buffer (pH 3.0-5.5), 50 mM sodium phosphate buffer (pH 6.0-8.0), and 50 mM glycine-NaOH buffer (pH 9.0-10). To determine the protein stability of laccase at a wide range of pH conditions, the enzyme (0.1 mg/mL in each reaction) was pre-incubated at pH 3.0-10 at 25° C. for 0-5 days and then the residual enzyme activity was determined.
(§2) The effect of pH on laccase activity was investigated at pH 2.0-6.0, using a glycine-HCl buffer (pH 2.0-2.5) or a citric acid buffer (pH 2.5-6.0). To determine protein stability in different pH conditions, the enzyme was pre-incubated at pH 2.5-4.5 at 25° C. for 0-2 h and the residual enzyme activity was determined by the standard enzymatic assay.

Data set [3] can be described thus: Laccase activity in culture media of recombinant P. pastoris. Type of data set: biochemical. The note with it: expressed in P. pastoris X-33; 13-26 day (Lcc1-3) or 18-day (LccA) cultivation. The text has this:
The EasySelect™ Pichia Expression System (Invitrogen) was used in this study for expression of Lcc1, Lcc2, and Lcc3 laccases. cDNA fragments coding for these three laccases were cloned into Pichia expression vector pPICZA or pPICZaB via EcoRI and NotI restriction sites. More specifically, the lcc1 gene coding for Lcc1 precursor (including a signal peptide sequence) was cloned into pPICA to generate expression plasmid pPICZA-lcc1 and the lcc2 and lcc3 genes coding for mature Lcc2 and Lcc3 were cloned into pPICZaB to obtain expression plasmids pPICZaB-lcc2 and pPICZaB-lcc3, respectively. The three expression plasmids were introduced into P. pastoris X-33 cells following the method described in Invitrogen's protocol. Positive transformants were cultured in BMMY (1% yeast extract, 2% peptone, 100 mM potassium phosphate, pH 6.0, 1.34% yeast nitrogen base, 0.00004% biotin, and 0.5% methanol) at 25° C., 200 rpm for 12-26 days. Methanol was added to the culture media daily to reach a final concentration of 0.5%. During the cultivation, 1 ml of the supernatant was collected at various time points. The laccase activity and cell density in the supernatant were determined following the method described above or routine procedures.
pPICZ-lccA was introduced into Pichia pastoris strain X-33 host cells (Invitrogen) and positive transformants were selected for LccA expression. Briefly, a positive transformant was cultured in BMMY medium containing 1% yeast extract, 2% peptone, 1.34% yeast nitrogen base, 0.00004% biotin, and 0.5% methanol at 25° C. and 200 rpm for 20 days. Methanol was daily added to reach a final concentration of 0.5%. Within the 20-day cultivation, 1 ml of the supernatant was collected; laccase activity and cell growth were determined.

A short description of data set [4]: 2,6-DMP oxidation (laccase kinetics, optimum temperature and pH). As to conditions: 2,6-DMP as substrate. Type of data set: biochemical. On the procedure: The effect of temperature on laccase activity was studied using the standard enzymatic activity assay described above under various reaction temperatures (i.e., 20-80° C.). For thermal stability study, the enzyme was pre-incubated in a 50 mM citric acid buffer (pH 3.0) at 50-80° C. for 0-180 min and the residual enzymatic activity was then determined.
as §1
Kinetic parameters Km and Vmax were determined as follows. […] The oxidation reactions of guaiacol and 2,6-DMP were monitored by determining OD436 values (ε=6,400 M^−1cm^−1) and OD468 values (ε=49,600 M^−1 cm^−1), respectively. The kinetic parameters were determined by nonlinear regression analysis (ENZFITTER software program, Elsevier-Biosoft, Cambridge, UK) using the Michaelis-Menten model.
To determine the effect of temperature on the enzyme activity, a standard enzymatic activity assay was performed under various temperatures (i.e., 30-90° C.). For thermal stability study, laccase was pre-incubated in a 50 mM citric acid buffer (pH 3.0) at 30-80° C. for 10-40 min and the residual enzymatic activity was then determined by the standard assay. See Example 1 above. Values of t1/2 were determined accordingly.
as §2
Kinetic parameters were determined following conventional methods. See also Example 1 above.

Data set [5] is described as follows: Thermal denaturation by differential scanning calorimetry (DSC). The note with it: 10 mM sodium phosphate buffer (pH 6.0). Type of data set: physicochemical. On the procedure: Thermal denaturation of laccase was determined by differential scanning calorimetry (DSC) using a Nano Differential Scanning calorimeter (N-DSC III) (TA Instruments, New Castle, Del.) at a heating rate of 1° C./min under a temperature from 30 to 95° C. and excess pressure of 3.0 atm. The protein concentration was 0.55 mg/ml in 10 mM sodium phosphate buffer (pH 6.0). Baseline corrections were performed and smoothed by subtracting a buffer thermogram. The data were then analyzed using the Launch NanoAnalyze Software (TA Instruments, New Castle, Del.), assuming a two-state unfolding model. See Pace et al., The Protein Structure: A Practical Approach; Creighton T. E., Ed.: IRL Press; Oxford U.K., pp. 311-330; 1989.
In general terms: DSC measures the heat that a sample takes up or gives off during a temperature scan.

For data set [6] the following is noted: pH 3. On the procedure: Lignin degradation reaction was carried out by mixing a crude laccase broth (containing 100 U enzyme) with 50 ml reaction buffer (50 mM citric acid solution; pH 3.0) containing 100 mg smashed rice straw materials. The mixture was incubated at 30-80° C. for 20-60 min. Sodium azide was added to the mixture at a final concentration of 1 mM to stop the enzymatic reaction. The processed rice straw was collected by filtration and dried at 60° C. The lignin contents in the rice straw before and after treatment were determined following the method described in kappa number of ISO 302:2004 (International Organization for Standardization).
The lignin degradation reaction and the dye decoloration reaction were carried out following the methods described in Example 1 above. […] See FIG. 9, pane A. The lignin degradation efficiencies were 22%-25% at 40-50° C. for 40 min and 32% at 40° C. for 60 min.

B1: Lcc3: laccase purified from Cerrena sp. WR1, GenBank accession no. GQ899203; SEQ ID NO:3 mature, 9 precursor (protein)
chain: AIGPVADLHITDANVSPDGFTRPAVLAGGTFPGPLITGKQGDNFQINVIDELTDATMLKSTSIHWHGIFQKGTNWADGPSFVNQCPITTGNSFLYDFSVPDQTGTYWYHSHLSTQYCDGLRGALVIYDDNDPHKDLYDVDDETTVITLADWYHTQARLITGVPVSDATLINGLGRYLNGPTDAPLAVITVDQGKRYRFRLVSISCDPNFVFSIDNHSMTVIEVDAVNSQPLVVDSIQIFAAQRYSFILNANQSVGNYWIRANPNLGNTGFTNGINSAILRYNGAPVAEPNTTQTASTNPLNEVNLHPLVPTPVPGTPQPGGVDVVQNLVLGFSGGKFTINGVAFSPPTVPVLLQILSGTTTAQDLLPTGSIIELPLGKTVELTLAAGVLGGPHPFHLHGHTFHVVRSAGQTTPNYVDPILRDTVNTGAAGDNVTIRFTTDNPGPWFLHCHIDWHLEAGFAVVFAEGLNQTNAANPTPDAWNNLCDLYNALPAGDQ
modifications: Cerrena sp
As for B1, the Relative activity is 92.7 ± 2.5% in data set [1] (Acetonitrile 1%, pH 3.0, 30° C.); 77.5 ± 3.2% in data set [1] (Acetonitrile 25%, pH 3.0, 30° C.); 93.5 ± 1.4% in data set [1] (Dimethyl sulfoxide 1%, pH 3.0, 30° C.); 55.8 ± 1.7% in data set [1] (Dimethyl sulfoxide 25%, pH 3.0, 30° C.); 94.5 ± 1.8% in data set [1] (Ethanol 1%, pH 3.0, 30° C.); 93.9 ± 4.0% in data set [1] (Ethanol 10%, pH 3.0, 30° C.). In addition, the Relative activity turned out to be 84.8 ± 3.3% in data set [1] (Ethanol 25%, pH 3.0, 30° C.); 93.0 ± 1.5% in data set [1] (Methanol 1%, 50 mM citric acid buffer pH 3.0, 30° C.); 85.5 ± 0.9% in data set [1] (Methanol 10%, pH 3.0, 30° C.); 100 ± 0.9% in data set [1] (N,N-dimethylformamide 1%, pH 3.0, 30° C.); 98.4 ± 0.5% in data set [1] (N,N-dimethylformamide 10%, pH 3.0, 30° C.). Also, the “stability at an acidic environment” value in data set [2] (pH 3.0-5.0) was “less stable”. Further, the activity maintained entry in data set [2] (pH 6-10, 63 hr incubation, 25° C.) is reported as “about 100%”. The “laccase activity in culture media” value in data set [3] is recorded as around 3700 U/L. Moreover, the optimal temperature in data set [4] came to 70 °C. In addition, the “pH of maximal activity” value in data set [4] was determined as 3.5. In data set [4] (at pH 3.5), the Optimum temperature is on record as 70 (at pH 3.5) ° C. Moreover, in data set [4] (optimum temperature and pH), the Specific activity came to 118.3 U/mg. In addition, the “midpoint temperature (Tm)” value in data set [5] was determined as 73.95 °C. The “highest lignin degradation efficiency per 100 U” value in data set [6] was “around 22.9%”.

For the origin of these results see patent US8728787B2, “Fungal laccases and uses thereof” (Academia Sinica, priority 2010, dated 2014).
